Literature values in publication PMC7005313.

Biological target: Tyr99 (UniProt position 100, KDGNGYISAAE)
Test: fluorescence
Settings: not stated (the title of the cited paper refers to calcium and pH dependence)

Q: Which pKa does the source give for Calmodulin (bovine testes) (Bos taurus) here?
A: Its pKa is “as low as 7.0”.
